From PMC4678826, “Different genome stability proteins underpin primed and naïve adaptation in E. coli CRISPR-Cas immunity”

How the values were obtained:
Cas1;Cas2 = target: T1, Cas1;Cas2 (Escherichia coli;Escherichia coli, UniProt Q46896;P45956 1-305;1-94, |); test: EMSA; 5 mM EDTA; super-shifted complex Y; EMSA: 7 mM Tris-HCl pH 8.5, 9% glycerol, 50 mM NaCl, 100 ug/ml BSA, 5 mM EDTA, 10 min ambient temperature, 6 nM DNA, 5% acrylamide TBE gel at room temperature; conditions: protein: recombinant;recombinant; tags: N-terminal His6;N-terminal His6; chain copies: 4;2; label: 5'-32P; fork; 25 nt leading arm duplex, 26 nt ssDNA flap
T1 sequence 1: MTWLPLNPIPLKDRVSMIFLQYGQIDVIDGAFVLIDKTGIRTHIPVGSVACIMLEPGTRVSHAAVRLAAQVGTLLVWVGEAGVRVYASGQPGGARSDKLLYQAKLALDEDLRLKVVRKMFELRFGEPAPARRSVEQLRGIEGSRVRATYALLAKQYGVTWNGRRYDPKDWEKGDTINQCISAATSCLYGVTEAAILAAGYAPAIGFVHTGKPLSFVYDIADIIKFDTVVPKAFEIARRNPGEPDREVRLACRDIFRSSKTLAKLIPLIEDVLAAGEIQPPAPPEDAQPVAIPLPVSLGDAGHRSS
T1 sequence 2: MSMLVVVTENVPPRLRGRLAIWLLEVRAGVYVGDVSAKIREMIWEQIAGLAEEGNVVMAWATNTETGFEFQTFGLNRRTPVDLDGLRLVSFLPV

Cas1 R123G = target: T2, Cas1 R123G (Escherichia coli, UniProt Q46896 1-305, R123G); test: EMSA; 5 mM EDTA; EMSA: 7 mM Tris-HCl pH 8.5, 9% glycerol, 50 mM NaCl, 100 ug/ml BSA, 5 mM EDTA, 10 min ambient temperature, 6 nM DNA, 5% acrylamide TBE gel at room temperature; conditions: protein: recombinant; tags: N-terminal His6; chain copies: 2; label: 5'-32P; fork; 25 nt leading arm duplex, 26 nt ssDNA flap
T2 sequence: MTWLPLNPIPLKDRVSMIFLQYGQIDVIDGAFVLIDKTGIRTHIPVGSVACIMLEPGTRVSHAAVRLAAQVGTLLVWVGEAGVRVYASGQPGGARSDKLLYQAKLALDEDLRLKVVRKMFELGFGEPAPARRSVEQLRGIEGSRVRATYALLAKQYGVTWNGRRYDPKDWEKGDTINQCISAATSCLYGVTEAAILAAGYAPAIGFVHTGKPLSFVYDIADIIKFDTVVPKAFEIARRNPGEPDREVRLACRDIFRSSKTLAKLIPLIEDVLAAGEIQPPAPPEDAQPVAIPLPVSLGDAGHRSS

Cas1 R138G = target: T3, Cas1 R138G (Escherichia coli, UniProt Q46896 1-305, R138G); test: as above; conditions: protein: recombinant; tags: N-terminal His6; chain copies: 2; label: 5'-32P; fork; 25 nt leading arm duplex, 26 nt ssDNA flap
T3 sequence: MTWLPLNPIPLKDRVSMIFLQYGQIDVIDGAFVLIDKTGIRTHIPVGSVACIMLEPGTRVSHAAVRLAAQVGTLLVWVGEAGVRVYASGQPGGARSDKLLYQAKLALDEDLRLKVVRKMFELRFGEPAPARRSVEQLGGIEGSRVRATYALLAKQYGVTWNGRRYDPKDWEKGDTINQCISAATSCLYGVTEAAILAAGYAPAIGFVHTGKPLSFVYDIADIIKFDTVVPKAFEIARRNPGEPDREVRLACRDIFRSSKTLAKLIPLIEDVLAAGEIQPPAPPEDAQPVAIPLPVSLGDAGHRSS

Cas1 R84G = target: T4, Cas1 R84G (Escherichia coli, UniProt Q46896 1-305, R84G); test: as above; conditions: protein: recombinant; tags: N-terminal His6; chain copies: 2; label: 5'-32P; fork; 25 nt leading arm duplex, 26 nt ssDNA flap
T4 sequence: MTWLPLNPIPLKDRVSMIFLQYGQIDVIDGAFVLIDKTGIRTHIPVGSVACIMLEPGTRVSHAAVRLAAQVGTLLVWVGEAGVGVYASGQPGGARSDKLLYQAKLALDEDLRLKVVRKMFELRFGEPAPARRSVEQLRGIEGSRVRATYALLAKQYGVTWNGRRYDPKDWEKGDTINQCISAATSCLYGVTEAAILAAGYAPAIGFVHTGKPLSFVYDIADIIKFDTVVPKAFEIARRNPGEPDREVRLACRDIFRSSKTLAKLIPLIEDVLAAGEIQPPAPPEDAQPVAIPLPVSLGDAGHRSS

B1: fork-1 (mixed)
DNA 1: CAACGTCATAGACGATTACATTGCTACATGGAGCTGTCTAGAGGATCCGA
DNA 2: TCGGATCCTCTAGACAGCTCCATGATCACTGGCACTGGTAGAATTCGGC
DNA 3: GCCGAATTCTACCAGTGCCAGTGAT
binding result (Cas1;Cas2): binds
binding result (Cas1 R123G): no binding
binding result (Cas1 R138G): no binding
binding result (Cas1 R84G): no binding
